Data: patent publication US9206239B2, “Treatment of cancers with immunostimulatory HIV Tat derivative polypeptides” (PIN Pharma, Inc., priority 2009, dated 2015)
Entries after “also recorded” stand apart in the source; their conditions may differ.

Columns and labels:
4T1 cells = test: Repeated dosing of Nani-P2 alternating with cyclophosphamide in 4T1 tumor-bearing mice; assay type: in vivo, BALB/c mice; conditions: by day 42; 80 mg/kg IP weekly from day 10
Procedure: Four groups of 10 BALB/c mice were implanted with 1×10^4 4T1 cells SC into the mammary fat pad. Treatment was initiated when tumor diameters reached 4-5 mm, on day 10. Control mice were injected IV with PBS at 3 days intervals, while alternating treatment mice received 3 doses of drug every 3 days in rotating 10 day cycles. Tumor burden (tumor size mm^3) was calculated using a standard formula. CY: (cyclophosphamide alone) mice were injected IP weekly with 80 mg/kg per mouse beginning on day 10. Cy/Nani-P2: (cyclophosphamide first followed by Nani-P2) mice were first injected IP with cyclophosphamide (80 mg/kg) at 3 days intervals for three doses starting at day 10 and then injected IV with Nani-P2 (40 ng) at 3 days intervals for three doses in rotation. The cycle of 3 doses of CY followed by 3 doses of Nani-P2 was repeated until day 50. Nani-P2/CY: (Nani-P2 first followed by cyclophosphamide): mice were first injected IV with Nani-P2 (40 ng) at 3 day intervals for 3 doses starting on day 10 and then injected i.p. with cyclophosphamide at 3 day intervals in rotation. The cycle of 3 doses of Nani-P2 followed by 3 doses of CY was repeated until day 50.

4T1 breast tumor cells = test: 4T1 breast tumor growth in BALB/c mice; assay type: in vivo
From the text: Female BALB/c mice 6 to 8 weeks old were purchased from the Jackson Laboratory (Bar Harbor, […].). Mice were acclimated for at least 1 week before use. Mice were kept in pathogen-free conditions at the Animal Maintenance Facility of the Columbia University of Medical Center and all experiments were approved by the Institutional Animal Care and Use Committee of Columbia University of Medical Center.
4T1 cells, a 6-thioguanine-resistant cell line derived from a BALB/c spontaneous mammary carcinoma was obtained from ATCC; TS/A, a murine adenocarcinoma cell line was provided by Dr. Sandra Demaria (Demaria S. et al. Clin Cancer Res. 11:728-34, 2005); and SM1, the BALB/C-derived mammary carcinoma was kindly was provided by Dr. James Allison, University of California, Berkeley. All tumor cell lines were cultured in DMEM, supplemented with 2 mM L-glutamine, 10 mM HEPES, 150 units/ml penicillin/streptomycin, 10% heat-inactivated FCS (Invitrogen), 50 μM 2-mercaptoethanol (Sigma), and 50 mg/L gentamicin (Lanza).
BALB/c were injected (SC) with 1×10^4 4T1, 1×10^5 TS/A or 2×10^5 SM1 cells, respectively, in the left mammary pad on day 0. Immunotherapy was performed by directly injecting a Tat derivative into the right flank at 0, 7, 12, and 17 days after establishment of tumors. The control group received PBS injection. […] Tumor burden (tumor volume) was measured and recorded three times weekly. Animals were sacrificed when tumors reached a volume of 15 mm in diameter and the tumors harvested and weighed.
The therapeutic effect of systemic administration of synthetic, Tat-derived compositions in murine models of breast cancer was investigated. To compare the relative protection conferred by a small panel of different derivatives against primary breast tumor growth, female BALB/c mice were injected with 1×10^4 4T1 breast tumor cells SC into the mammary pad, and then treated with 400 ng partially-purified Tat derivatives at day 0, 7, 14 and 21 (SC injection in PBS) into the draining axillary lymph nodes.

With `O=P1(N(CCCl)CCCl)NCCCO1` (stereo not drawn) [cyclophosphamide, reference compound] the treated mice dead (4T1 cells) was 10/10.

B1: Nani-P1: HIV Tat derivative polypeptide, SEQ ID NO: 2; internal prolines of the SH3-binding site each substituted as alanine (protein)
chain: MEPVDANLEAWKHAGSQPRKTACTTCYCKKCCFHCQVCFTRKGLGISYGRKKRRQRRRAPQDSQTHQASLSKQPASQSRGDPTGPTESKKKVERETETDPFD
modifications: Nani-P1 modified HIV Tat sequence
B1 was tested, and the “tumor burden compared to control mice receiving PBS” value (4T1 breast tumor cells; 400 ng partially-purified derivative SC day 0, 7, 14, 21, apparent from day 15 (p<0.05)) was “significantly reduced tumor burden”.

B2: Nani-P3: HIV Tat derivative polypeptide, SEQ ID NO: 4; serine-rich TARA homology sequence replaces the SH3 binding sequence (protein)
chain: METPLKEQENSLESCREHSSSISEVDVPTPVSCLRKGGRCWNRCIGNTRQIGSCGVPFLKCCKRKPFTRKGLGISYGRKKRRQRRRAPQDSQTHQASLSKQPASQSRGDPTGPTESKKKVERETETDPFD
modifications: Nani-P3 modified HIV Tat sequence
For B2, the “4T1 primary tumor growth vs controls” value (4T1 breast tumor cells; 400 ng or 2 μg SC days 0, 7, 14, 21) was “less effective at suppressing 4T1 primary tumor growth; also recorded: no difference”.
